Reference: patent US20210070875A1
Where “and” joins values, the source holds several entries; their conditions need not be identical. Equal entries are not always repeated. Values belong to the substance of their own block, whether it stands above or below them.

Assays:
[1] = target: C5aR extracellular N-terminus polypeptide (UniProt P21730); assay: ELISA, polypeptide coated at 1.0 µg/mL
C5aR polypeptide-05 = C5aR polypeptide-05 (UniProt P21730); assay: ELISA, polypeptide coated at 1.0 µg/mL
C5aR polypeptide-03 = C5aR polypeptide-03 (UniProt P21730); assay: ELISA, polypeptide coated at 1.0 µg/mL
C5aR polypeptide-04 = C5aR polypeptide-04 (UniProt P21730); assay: ELISA, polypeptide coated at 1.0 µg/mL
human C5aR (human) [2] = target: human C5aR (human) (UniProt P21730); assay: FACS, CHOK1-hC5aR cells, 0.6660 nM antibody
Sequence of human C5aR (human) (P21730 other isoform, or with tags, fused parts or gaps): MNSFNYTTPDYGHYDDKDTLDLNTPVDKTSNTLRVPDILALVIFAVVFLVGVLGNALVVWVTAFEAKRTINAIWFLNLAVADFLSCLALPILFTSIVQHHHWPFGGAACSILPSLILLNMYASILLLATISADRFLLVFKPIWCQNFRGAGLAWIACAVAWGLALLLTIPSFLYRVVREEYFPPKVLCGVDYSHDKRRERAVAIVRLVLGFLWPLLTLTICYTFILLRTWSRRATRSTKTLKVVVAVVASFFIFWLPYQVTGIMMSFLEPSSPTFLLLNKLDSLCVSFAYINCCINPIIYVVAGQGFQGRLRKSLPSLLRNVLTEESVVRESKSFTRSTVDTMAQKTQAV

human C5aR (human) [3] = target: human C5aR (human) (UniProt P21730); assay: FACS, CHOK1-hC5aR cells, 6.6600 nM antibody
human C5aR (human) [4] = target: human C5aR (human) (UniProt P21730); assay: FACS, CHOK1-hC5aR cells, 0.0067 nM antibody
human C5aR (human) [5] = target: human C5aR (human) (UniProt P21730); assay: FACS, CHOK1-hC5aR cells, 666.0000 nM antibody
human C5aR (human) [6] = target: human C5aR (human) (UniProt P21730); assay: FACS, CHOK1-hC5aR cells, 0.0007 nM antibody
human C5aR (human) [7] = target: human C5aR (human) (UniProt P21730); assay: FACS, CHOK1-hC5aR cells, 66.6000 nM antibody
human C5aR (human) [8] = target: human C5aR (human) (UniProt P21730); assay: FACS, CHOK1-hC5aR cells, 0.0000 nM antibody (background)
human C5aR (human) [9] = target: human C5aR (human) (UniProt P21730); assay: FACS, CHOK1-hC5aR cells, 0.0666 nM antibody
human C5aR (human) [10] = target: human C5aR (human) (UniProt P21730); assay: cell-based or functional assay

OD450 nm [1]: 0.07 OD450 nm | OD450 nm (C5aR polypeptide-05): 0.07 OD450 nm | OD450 nm (C5aR polypeptide-03): 0.07 OD450 nm | OD450 nm (C5aR polypeptide-04): 0.06 OD450 nm
Substance: IgG control (human IgG) (antibody)

MFI (human C5aR (human) [2]): 2.96 MFI and 1.99 MFI | MFI (human C5aR (human) [3]): 2.88 MFI and 2.01 MFI | MFI (human C5aR (human) [4]): 2.79 MFI and 2.01 MFI | MFI (human C5aR (human) [5]): 3.22 MFI and 2.21 MFI | MFI (human C5aR (human) [6]): 2.78 MFI and 2.03 MFI | MFI (human C5aR (human) [7]): 3.18 MFI and 2.14 MFI | MFI (human C5aR (human) [8]): 2.69 MFI and 1.99 MFI | MFI (human C5aR (human) [9]): 2.81 MFI and 2 MFI | C5a-induced human neutrophil migration, Celltiter-Glo fluorescence intensity value, Parallel sample 1 (fluorescence intensity) (human C5aR (human) [10]): 5170 | C5a-induced human neutrophil migration, Celltiter-Glo fluorescence intensity value, Parallel sample 2 (fluorescence intensity) (human C5aR (human) [10]): 5000 | C5a-induced human neutrophil migration, Celltiter-Glo fluorescence intensity value, Parallel sample 3 (fluorescence intensity) (human C5aR (human) [10]): 2580 | C5a-induced human neutrophil migration, Celltiter-Glo fluorescence intensity value, Parallel sample 4 (fluorescence intensity) (human C5aR (human) [10]): 2640 | C5a-mediated calcium flow signal, FLIPR, antibody 0.0 µg/mL (human C5aR (human) [10]): 1870 MFI and 1690 MFI | C5a-mediated calcium flow signal, FLIPR, antibody 0.01 µg/mL (human C5aR (human) [10]): 2110 MFI and 1890 MFI | C5a-mediated calcium flow signal, FLIPR, antibody 0.1 µg/mL (human C5aR (human) [10]): 2080 MFI and 1740 MFI | C5a-mediated calcium flow signal, FLIPR, antibody 0.4 µg/mL (human C5aR (human) [10]): 1920 MFI and 1610 MFI | C5a-mediated calcium flow signal, FLIPR, antibody 1.1 µg/mL (human C5aR (human) [10]): 1830 MFI and 1790 MFI | C5a-mediated calcium flow signal, FLIPR, antibody 3.3 µg/mL (human C5aR (human) [10]): 1870 MFI and 1840 MFI | C5a-mediated calcium flow signal, FLIPR, antibody 10.0 µg/mL (human C5aR (human) [10]): 1730 MFI and 1850 MFI | C5a-mediated calcium flow signal, FLIPR, antibody 30.0 µg/mL (human C5aR (human) [10]): 1590 MFI
Substance: mIgG control (murine IgG) (antibody)
